Results reported in patent publication US20050130265, “Aiolos, Helios, Daedalos and Ikaros: genes, polypeptides, regulatory elements and uses thereof” (published 2005).

Target: T1, Aiolos (GST fusion) (Mus musculus, UniProt O08900 SEQ:1-507)
T1 chain: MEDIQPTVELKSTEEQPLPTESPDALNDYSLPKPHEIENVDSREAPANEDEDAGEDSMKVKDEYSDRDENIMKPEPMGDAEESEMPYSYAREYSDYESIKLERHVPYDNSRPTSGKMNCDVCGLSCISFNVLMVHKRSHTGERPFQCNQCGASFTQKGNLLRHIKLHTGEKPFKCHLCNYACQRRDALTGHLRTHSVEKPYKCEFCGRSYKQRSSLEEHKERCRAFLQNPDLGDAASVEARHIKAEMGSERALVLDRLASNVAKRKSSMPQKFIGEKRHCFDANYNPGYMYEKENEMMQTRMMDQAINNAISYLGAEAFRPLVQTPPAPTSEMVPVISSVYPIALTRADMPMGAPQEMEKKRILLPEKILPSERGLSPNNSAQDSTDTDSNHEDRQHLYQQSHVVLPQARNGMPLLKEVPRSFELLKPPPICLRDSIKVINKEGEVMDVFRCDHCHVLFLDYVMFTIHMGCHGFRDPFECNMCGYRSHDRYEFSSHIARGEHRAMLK
Test: EMSA; 0.5 ug protein, 1-2 ng DNA; binding stated generally for Ikaros consensus sites
Details: tags: GST
Experimental: DNA binding assays (EMSA) were performed essentially as described in Molnar et al. (1994) Mol. Cell. Biol. 14, 8292-8303. GST-Aiolos and Ikaros fusion proteins and their GST fusion partner (0.5 μg) were tested for binding to the IkBD1-[…] (SEQ ID NO:11) oligonucleotide which contains a high affinity Ikaros binding site (100,000 cpm/reaction which equals 1 to 2 ngs of DNA). Competition assays were performed with Ik-BS 1 and with Ik-BS8 TCAGCTTTTGGGggTACCCTGTCA (SEQ ID NO:12) oligonucleotides used at 5-100× molar excess.

B1: IkBS1 (dsDNA)
DNA 1: TCAGCTTTTGGGAATACCCTGTCA
DNA 2: TGACAGGGTATTCCCAAAAGCTGA
  binding result: binds
